Reference: paper PMC11379828

T1: MBP-EFD (1-260 aa) (Arabidopsis thaliana, UniProt Q9M389 1-260)
T1 sequence: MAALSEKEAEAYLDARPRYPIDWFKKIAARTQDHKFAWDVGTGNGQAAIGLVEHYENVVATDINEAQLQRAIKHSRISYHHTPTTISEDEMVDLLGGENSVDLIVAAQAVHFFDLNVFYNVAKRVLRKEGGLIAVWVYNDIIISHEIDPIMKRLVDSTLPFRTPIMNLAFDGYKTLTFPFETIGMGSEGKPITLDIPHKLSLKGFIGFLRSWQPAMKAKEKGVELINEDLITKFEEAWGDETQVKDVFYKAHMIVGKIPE

T2: MBP-EFD (Arabidopsis thaliana, UniProt Q9M389 1-323)
T2 sequence: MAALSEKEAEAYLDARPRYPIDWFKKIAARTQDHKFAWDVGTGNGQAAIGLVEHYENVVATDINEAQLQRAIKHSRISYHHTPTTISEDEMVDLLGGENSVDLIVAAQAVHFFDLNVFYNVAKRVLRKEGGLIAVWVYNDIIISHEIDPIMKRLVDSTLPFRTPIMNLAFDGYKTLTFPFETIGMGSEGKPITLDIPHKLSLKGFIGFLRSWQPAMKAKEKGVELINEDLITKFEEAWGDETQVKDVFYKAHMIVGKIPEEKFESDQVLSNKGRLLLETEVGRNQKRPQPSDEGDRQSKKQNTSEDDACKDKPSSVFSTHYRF


What was measured:
[1] = molecular target: T1, MBP-EFD (1-260 aa); assay: EMSA
[2] = molecular target: T2, MBP-EFD; assay: EMSA

Binder | binding result [1] | binding result [2]
HB21 probe, unmethylated (HB21+1410) (dsDNA) DNA 1: ATCCTCTGTGACCATTGAAGCCAATCATACGACACCGTTTTTTGGAGATTACGACATCGGATTTGACGGTGAGGCTGACGAG DNA 2: CTCGTCAGCCTCACCGTCAAATCCGATGTCGTAATCTCCAAAAAACGGTGTCGTATGATTGGCTTCAATGGTCACAGAGGAT | binds | binds
HB21 probe, methylated (HB21+1410) (dsDNA, 5-methylcytosine, positions not given) DNA 1: ATCCTCTGTGACCATTGAAGCCAATCATACGACACCGTTTTTTGGAGATTACGACATCGGATTTGACGGTGAGGCTGACGAG DNA 2: CTCGTCAGCCTCACCGTCAAATCCGATGTCGTAATCTCCAAAAAACGGTGTCGTATGATTGGCTTCAATGGTCACAGAGGAT | binds | 
